Three substances from article PMC8406262 can be followed below.

The target in experiment [1] is BonA, endogenous in A. baumannii ATCC 19606 membranes (Acinetobacter baumannii ATCC 19606 (endogenous)). As to the kind of experiment: native gel or EMSA; 5 to 16% blue-native PAGE of 50 μg total membranes solubilized in detergent, Western blot with anti-BonA antiserum.
The target of experiment [2] is BonA, full-length soluble recombinant protein (mature, lacking its signal sequence) (Acinetobacter baumannii). Kind of experiment: SEC-MALS; 100 μl at 1 to 5 mg/ml on Superdex 200 10/300 GL, 20 mM Tris-200 mM NaCl pH 7.9.
The target is the same in experiment [3]. Kind of experiment: AUC; sedimentation velocity, 0.25 to 2 mg/ml, 40,000 rpm, 20°C, 50 mM Tris-200 mM NaCl pH 7.9.
Experiment [4] deals with BonA-C45, 45-aa C-terminally truncated BonA (Acinetobacter baumannii). Kind of experiment: SEC-MALS; 100 μl at 1 to 5 mg/ml on Superdex 200 10/300 GL, 20 mM Tris-200 mM NaCl pH 7.9.

For “BonA, endogenous in A. baumannii ATCC 19606 membranes (natural protein)”, the stoichiometry N in experiment [1] came out at 2.
On to “BonA, full-length soluble recombinant protein (mature, lacking its signal sequence) (natural protein)”, for which the stoichiometry N in experiment [2] and in experiment [3] was 10 in each case.
For “BonA-C45, 45-aa C-terminally truncated BonA (domain or fragment)”, the stoichiometry N in experiment [4] was 10.
